Measured values from publication PMC12368724 (2025).

Target: GH1 β-glucosidase from Spodoptera frugiperda (Sfβgly), wild-type (Spodoptera frugiperda)
Experiment: P100 buffer, pH 6, 5°C, protein sample 3 (SEC)

- Kd: 5.5 µM
B1: GH1 β-glucosidase from Spodoptera frugiperda (Sfβgly), wild-type (enzyme)
chain: QQRRFPDDFLFGTATASYQIEGAWDEDGKGENIWDYMVHNTPEVIRDLSNGDIAADSYHNYKRDVEMMRELGLDAYRFSLSWARILPTGMANEVNPAGIAFYNNYIDEMLKYNITPLITLYHWDLPQKLQELGGFANPLISDWFEDYARVVFENFGDRVKMFITFNEPREICFEGYGSATKAPILNATAMGAYLCAKNLVTAHAKAYYLYDREFRPVQGGQCGITISVNWFGPATPTPEDEMAAELRRQGEWGIYAHPIFSAEGGFPKELSDKIAEKSAQQGYPWSRLPEFTEEEKAFVRGTSDFFGVNHYTAFLVSATERKGPYPVPSLLDDVDTGSWADDSWLKSASAWLTLAPNSIHTALTHLNNLYNKPVFYITENGWSTDESRENSLIDDDRIQYYRASMESLLNCLDDGINLKGYMAWSLMDNFEWMEGYIERFGLYEVDFSDPARTRTPRKAAFVYKHIIKHRVVDYEYEPETMVMTIDEGH
modifications: Monomer given, self-associates to a C2 homodimer. Limits by convention from the 5CG0 entity; paper numbering = entity + 20 (precursor numbering) Monomer given, self-associates to a C2 homodimer. Limits by convention from the 5CG0 entity; paper numbering = entity + 20 (precursor numbering)
